In one data set the test system is ovariectomized rats. To be noted: cited from earlier work.
The next data set relates to rats. The conditions noted are these: long-term usage; cited from earlier work.
The nature of data set [1]: Serum calcium levels in the rat OVX dose response study. It counts as in vivo. To be noted: OVX rats; not significant at the p<0.05 level. The protocol:
Ninety female, 3-month old Sprague-Dawley rats were obtained. Eighty (80) of the rats were ovariectomized (OVX) and ten (10) underwent a sham OVX procedure (sham OVX) in which the ovaries were left in the animal. The OVX animals were randomly assigned into groups of ten for further experiments.
Following the actual or sham OVX procedure, all animals were untreated for 6 weeks to allow bone loss. After the 6 week period of bone loss, groups of animals were injected for a six- or eight-week period (daily for five days per week) with vehicle (saline) or 3, 10, or 30 μg/kg bear or human PTH1-34. […] The sham OVX group as well as one group of actual OVX rats were euthanized at six weeks while the remaining animals were euthanized at fourteen weeks following the OVX procedure. Samples were obtained from the euthanized animals for further analysis.

Data set [2] deals with ovariectomized (OVX) Sprague-Dawley rats. Kind of data set: In vivo effects of human PTH1-84 and bear PTH1-84 in ovariectomized rats. On the set-up: species or system rat. The conditions noted are these: 2.5 nmol/kg s.c., eight weeks. The protocol:
Thirty female, 2.5-month old Sprague-Dawley rats were ovariectomized (OVX) at the commercial breeding facility The OVX animals were randomly assigned into 3 groups of 10 animals per group for further experiments.
Six weeks after the OVX procedure, the rats were injected subcutaneously for an eight-week period (daily for five days per week) with vehicle (saline) or 2.5 nmol/kg bear or human PTH1-84. Animals were euthanized 24 hours after the last injection. Samples were obtained from the euthanized animals for further analysis.
Femur bending strength and proximal tibia trabecular architecture were investigated as described in Example 12.

Data set [3] has as its system human fetal osteoblasts (hFOB). Kind of data set: Serum starvation cell death in human fetal osteoblasts (trypan blue). It counts as cell-based. To be noted: 100 nM for 1 hour before serum starvation for 24 hours, preliminary studies, p<0.0001. The protocol:
All PTH peptides used in the current study attenuated apoptotic signaling induced by serum starvation in vitro (FIG. 19). bbPTH 1-34 reduced apoptotic signaling in pre-osteoblastic cells more than human PTH (FIG. 19). Recently, we found similar results with preliminary studies in human fetal osteoblasts (hFOB). Serum starvation for 24 hours increased cell death in hFOB (confirmed via trypan blue staining), but pretreatment of hFOB cells with 100 nM PTH 1-34 or 1-84 for 1 hour before starvation reduced percent cell death (percentage change in cell death compared to vehicle pretreatment, hPTH 1-34: −18%, bbPTH 1-34: −25%, hPTH 1-84: −17%, bbPTH 1-84: −21%; p<0.0001; data not shown). […] However, although bbPTH 1-84 was less anti-apoptotic than bbPTH 1-34 and hPTH 1-34 in vitro (FIG. 19) it caused the greatest increases in cortical and trabecular bone mass in the in vivo studies (Table 1, Table 2).

Data set [4] has as its system Male Swiss-Webster mice. The data set is described as follows: Cortical bone dynamic histomorphometry in the femur (calcein labels). It counts as in vivo, mouse. The conditions noted are these: femoral midshaft, 2.5 nmol/kg s.c., 8 weeks, SD in parentheses. From the text:
(§1) All handling procedures and experiments were approved by the Michigan Technological University Institutional Animal Care and Use Committees. Male Swiss-Webster mice were obtained from a commercial breeder (Harlan, Indianapolis, Ind.). All animals were maintained on a 12-h light/12-h dark cycle, and were permitted free access to water and food containing 0.95% calcium (Purina Rodent Diet #5001).
(§2) In the first experiment, 11 wk old mice received daily (5 days/week) subcutaneous injections of 2.5 nmol/kg PTH 1-34 (hPTH 1-34 or bbPTH 1-34) or acidic saline vehicle (0.15 M NaCl+0.001 N HCl) for 8 weeks (n=10 mice/group). In the second experiment, 12 wk old mice received daily (5 days/week) subcutaneous injections of 2.5 nmol/kg PTH 1-84 (hPTH 1-84 or bbPTH 1-84) or acidic saline vehicle for 8 weeks (n=10 mice/group). All PTH- and vehicle-treated animals received subcutaneous injections of calcein at a dosage of 10 mg/kg on days 12 and 3 before death to label mineralizing bone surfaces. Twenty-four hours following the last treatment injection, mice were sacrificed by carbon dioxide asphyxiation. Right femurs were fixed in 10% neutral buffered formalin. Left femurs were wrapped in 0.15M saline soaked gauze and stored at −20 deg C. Left tibias were stored in 70% ethanol at 4 deg C.
(§3) Following the bending test, the left femoral diaphyses were ashed in a furnace to determine mineral content (ash fraction). Right femoral diaphyses were embedded in methyl methacrylate and sectioned with a diamond saw to expose the midshaft cross-section. Images of the midshaft cross-sections were captured using a digital camera (Spot Insight QE, Diagnostic Instruments Inc., Sterling Heights, Mich.), and Scion Image analysis software (Scion Corporation, Frederick, Md.) was used to calculate the periosteal area (Ps.Ar), cortical area (Ct.Ar), and endosteal area (Es.Ar) for each sample. Cortical bone thickness (Ct.Th) was calculated in 0.1 mm increments for each anatomical quadrant and for the entire cross-section using image analysis software (Bioquant Osteo, Nashville, Tenn.). Thin sections from the midshaft of the right femur were ground to a thickness of 50 μm and mounted on glass slides. Images of calcein labels were captured at 100× magnification and periosteal and endosteal mineral apposition rates (Ps.MAR and Es.MAR, respectively) and mineralizing surfaces (Ps.MS/BS and Es.MS/MS) were quantified (Bioquant) for each femur.
(§4) All bone geometrical, architectural, and mineral properties were normalized by body mass to account for potential variation in animal size (31-33). Trabecular bone properties quantified by micro-computed tomography were compared by ANOVA between vehicle, bear, and human PTH-treated mice within each study (PTH 1-34 or PTH 1-84). The microCT parameters were not directly compared between the PTH 1-34 and PTH 1-84 studies because analyses were conducted on different microCT machines. For all other bone properties, all six experimental groups (from both the PTH 1-34 and PTH 1-84 studies) were compared with ANOVA and Fisher's PLSD. A significance of p<0.05 was used for all comparisons.

Data set [5] has as its system Male Swiss-Webster mice. Kind of data set: Cortical bone mineral content (ash fraction) and geometrical properties of the femur. It counts as in vivo, mouse. To be noted: femoral midshaft, 2.5 nmol/kg s.c., 8 weeks, normalized by body mass, SD in parentheses.
Text: as §1, §2, §3, §4

For data set [6], the system named is Male Swiss-Webster mice. Kind of data set: Trabecular bone structure and mineralization in the proximal tibia (micro-computed tomography). The class given is in vivo, mouse. The conditions noted are these: 8 weeks.
Text: as §1, §2
Trabecular bone architecture and mineralization were evaluated in the left proximal tibial metaphysis (0.7 mm distal to the growth plate) using micro-computed tomography. Tibias from experiment 1 were scanned on a μCT35 scanner (Scanco Medical AG, Basserdorf, Switzerland) at 3.5 μm (high) resolution. Tibias from experiment 2 were scanned on a μCT40 scanner (Scanco Medical AG, Basserdorf, Switzerland) at 7 μm (high) resolution. Bones were scanned in 70% ethanol. Trabecular bone volume fraction (BV/TV, %), trabecular number (Tb.N, mm^−1), trabecular thickness (Tb.Th, m), trabecular separation (Tb.Sp, m), trabecular apparent mineral density (App.Mn.Dn, mgHA/cm^3) and trabecular tissue mineral density (Mat.Mn.Dn, mgHA/cm^3) were computed using the manufacturer's software.
as §4

The subject of data set [7] is Male Swiss-Webster mice. The data set is described as follows: Cortical bone mechanical properties of the femur (3-point bending). The class given is in vivo, mouse. The conditions noted are these: 2.5 nmol/kg, 8 weeks.
Text: as §1
In the first experiment, 11 wk old mice received daily (5 days/week) subcutaneous injections of 2.5 nmol/kg PTH 1-34 (hPTH 1-34 or bbPTH 1-34) or acidic saline vehicle (0.15 M NaCl+0.001 N HCl) for 8 weeks (n=10 mice/group). In the second experiment, 12 wk old mice received daily (5 days/week) subcutaneous injections of 2.5 nmol/kg PTH 1-84 (hPTH 1-84 or bbPTH 1-84) or acidic saline vehicle for 8 weeks (n=10 mice/group). […]
Left femurs were loaded to failure in 3-point bending on an Instron mechanical testing system (Model #8872, Canton, Mass.) at a rate of 1 mm/min. […] Ultimate load was calculated using the load-deformation data from testing.
All bone geometrical, architectural, and mineral properties were normalized by body mass to account for potential variation in animal size (31-33). Trabecular bone properties quantified by micro-computed tomography were compared by ANOVA between vehicle, bear, and human PTH-treated mice within each study (PTH 1-34 or PTH 1-84). […]

Setting [8] is: PTH 1-84 study: 12 wk old mice, 2.5 nmol/kg s.c., proximal tibia, normalized by body mass.

Marks after values point to notes of the source that are not given here. No end group written: not given here.

Consider 4 molecules from patent publication US8987201B2, “Black bear parathyroid hormone and methods of using black bear parathyroid hormone” (Michigan Technological University, priority 2009, dated 2015).

On to “bovine PTH 1-34 (AVSEIQFMHNLGKHLSSMERVEWLRKKLQDVHNF; Parathyroid hormone; UniProt P01268 32-65, looked up, fragment) [1-34 fragment of bovine PTH]”, for which the “greater bone formation response than to rat PTH 1-34” value with ovariectomized rats (daily 25 μg injections) was 25%. Also, the “greater increase in bone volume fraction during treatment” value in the data set on ovariectomized rats (injection) was 37%.
As for `CC[C@H](C)[C@H](NC(=O)[C@H](CCC(=O)O)NC(=O)[C@H](CO)NC(=O)[C@@H](NC(=O)[C@@H](N)CO)C(C)C)C(=O)N[C@@H](CCC(N)=O)C(=O)N[C@@H](CC(C)C)C(=O)N[C@@H](CCSC)C(=O)N[C@@H](Cc1cnc[nH]1)C(=O)N[C@@H](CC(N)=O)C(=O)N[C@@H](CC(C)C)C(=O)NCC(=O)N[C@@H](CCCCN)C(=O)N[C@@H](Cc1cnc[nH]1)C(=O)N[C@@H](CC(C)C)C(=O)N[C@@H](CC(N)=O)C(=O)N[C@@H](CO)C(=O)N[C@@H](CCSC)C(=O)N[C@@H](CCC(=O)O)C(=O)N[C@@H](CCCN=C(N)N)C(=O)N[C@H](C(=O)N[C@@H](CCC(=O)O)C(=O)N[C@@H](Cc1c[nH]c2ccccc12)C(=O)N[C@@H](CC(C)C)C(=O)N[C@@H](CCCN=C(N)N)C(=O)N[C@@H](CCCCN)C(=O)N[C@@H](CCCCN)C(=O)N[C@@H](CC(C)C)C(=O)N[C@@H](CCC(N)=O)C(=O)N[C@@H](CC(=O)O)C(=O)N[C@H](C(=O)N[C@@H](Cc1cnc[nH]1)C(=O)N[C@@H](CC(N)=O)C(=O)N[C@@H](Cc1ccccc1)C(=O)O)C(C)C)C(C)C` [LY333334], the osteosarcoma in rats entry in the data set on rats is reported as “generates osteosarcoma”.
With “SVSEIQFMHNLGKHLSSMERVEWLRKKLQDVHNF [bbPTH 1-34, black bear PTH 1-34]”, the “serum calcium levels compared to human PTH1-34” value in [1] is given as “lower”.

B1: black bear PTH1-84 (protein, listed as Ursus americanus)
chain: SVSEIQFMHNLGKHLSSMERVEWLRKKLQDVHNFVALGAPTAHRDGGSQRPQKKEDNVLVENHQKSLGEADKADVDVLTKAKSQ
On to B1, for which, in data set [2], the “bone volume fraction / trabecular bone volume” value is “equivalently increase”, the “increases in cortical bone strength compared to hPTH1-84” value is given as “greater increases” and the “ultimate load of the femur compared to vehicle treatment” value is “significantly (p=0.013) increased”. The “percentage change in cell death compared to vehicle pretreatment” value in data set [3] is recorded as −21%. In addition, in the data set with Male Swiss-Webster mice [4], the “Endosteal MAR” value is 0.59 (0.42), the “Endosteal MS/BS” value is on record as 24.5 (17.2), the “Periosteal MAR” value is recorded as 0.62 (0.33) and the “Periosteal MS/BS” value is 31.3 (22.5). Also, in the data set with Male Swiss-Webster mice [5], the Ct.Ar is 31.7 (3.7) mm^2/kg, the Ct.Th is 3.56 (0.42)^a mm/kg, the Es.Ar is reported as 26.6 (4.6) mm^2/kg and the Ps.Ar was 58.3 (5.0)^a,b mm^2/kg. This molecule also registered a BV/TV in the data set with Male Swiss-Webster mice [6] (PTH 1-84 study: 12 wk old mice, 2.5 nmol/kg s.c. daily 5 days/week, proximal tibia, normalized by body mass) of 2.26 %/kg. In the data set on Male Swiss-Webster mice [6] (setting [8]), the “App. Mn. Dn” value was 3665 mgHA/(cm^3*kg), the “Mat. Mn. Dn.” value is 30552 mgHA/(cm^3*kg), the “Tb. N” value was 113.8 1/mm*kg and the “Tb. Sp” value is 8.47 mm/kg. Further, in the data set with Male Swiss-Webster mice [6] (setting [8]), the “Tb. Th” value is reported as 1.38 mm/kg. For the same molecule, in the data set on Male Swiss-Webster mice [6] (mice, 2.5 nmol/kg, bbPTH 1-84 vs hPTH 1-84 p=0.019), the “trabecular apparent mineral density compared to other treatments” value was “highest”. Further, the “trabecular bone volume fraction and apparent mineral density over vehicle treatment” value in the data set on Male Swiss-Webster mice [6] (mice, 2.5 nmol/kg, only this peptide) is “significantly increased over vehicle treatment”. Moreover, the “bone volume fraction in the proximal tibia compared to hPTH 1-84” value in the data set with Male Swiss-Webster mice [6] (mice, 2.5 nmol/kg, p=0.013) is recorded as “greater”. For the same molecule, the “increase in bone strength (ultimate load of the femur), bear peptide compared to the corresponding human peptide” value in the data set on Male Swiss-Webster mice [7] was “significantly (p=0.032) greater”. Besides, in the data set on Male Swiss-Webster mice [7] (only for this peptide), the “increase of femoral ultimate load over vehicle treatment” value is “statistically significant”.
